This note sets out measurements from PMC9499477, “The Inflammasome Activity of NLRP3 Is Independent of NEK7 in HEK293 Cells Co-Expressing ASC” (International Journal of Molecular Sciences, 2022).

The data set concerns the molecule itself. Description: SEC + other: dynamic light scattering; analytical SEC: 100 µL of 1 mg/mL FLAG-tagged NLRP3ΔPYD on Superose 6 Increase 10/300, 20 mM HEPES pH 7.5, 200 mM NaCl, 1 mM MgCl2, 2 mM DTT, size by calibration standards; DLS at 10 °C in the same buffer; self-association.

B1: NLRP3ΔPYD carrying the double mutation F788E/F813E (NLRP3ΔPYD-F788E/F813E), FLAG-tagged (domain or fragment, human, UniProt Q96P20 126-1036, looked up)
chain: RISICKMKKDYRKKYRKYVRSRFQCIEDRNARLGESVSLNKRYTRLRLIKEHRSQQEREQELLAIGKTKTCESPVSPIKMELLFDPDDEHSEPVHTVVFQGAAGIGKTILARKMMLDWASGTLYQDRFDYLFYIHCREVSLVTQRSLGDLIMSCCPDPNPPIHKIVRKPSRILFLMDGFDELQGAFDEHIGPLCTDWQKAERGDILLSSLIRKKLLPEASLLITTRPVALEKLQHLLDHPRHVEILGFSEAKRKEYFFKYFSDEAQARAAFSLIQENEVLFTMCFIPLVCWIVCTGLKQQMESGKSLAQTSKTTTAVYVFFLSSLLQPRGGSQEHGLCAHLWGLCSLAADGIWNQKILFEESDLRNHGLQKADVSAFLRMNLFQKEVDCEKFYSFIHMTFQEFFAAMYYLLEEEKEGRTNVPGSRLKLPSRDVTVLLENYGKFEKGYLIFVVRFLFGLVNQERTSYLEKKLSCKISQQIRLELLKWIEVKAKAKKLQIQPSQLELFYCLYEMQEEDFVQRAMDYFPKIEINLSTRMDHMVSSFCIENCHRVESLSLGFLHNMPKEEEEEEKEGRHLDMVQCVLPSSSHAACSHGLVNSHLTSSFCRGLFSVLSTSQSLTELDLSDNSLGDPGMRVLCETLQHPGCNIRRLWLGRCGLSHECCEDISLVLSSNQKLVELDLSDNALGDEGIRLLCVGLKHLLCNLKKLWLVSCCLTSACCQDLASVLSTSHSLTRLYVGENALGDSGVAILCEKAKNPQCNLQKLGLVNSGLTSVCCSALSSVLSTNQNLTHLYLRGNTLGDKGIKLLCEGLLHPDCKLQVLELDNCNLTSHCCWDLSTLLTSSQSLRKLSLGNNDLGDLGVMMFCEVLKQQSCLLQNLGLSEMYFNYETKSALETLQEEKPELTVVFEPSW
notes: NLRP3, human, N-terminally truncated, amino acids 126-1036 (lacks the pyrin domain), with F788E and F813E; Made by megaprimer mutagenesis of the NLRP3ΔPYD construct; also called the mutant
Turning to B1, the “stoichiometry N” value was roughly 3.

For orientation: stoichiometry N means the number of molecules, sites or subunits per partner or assembly.
